Paper PMC3022644, “The exopolyphosphatase TbrPPX1 of Trypanosoma brucei” (BMC Microbiology, 2011)

Substrate: O=P(O)(O)OP(=O)(O)OP(=O)(O)O
Test: purified protein
Type: biochemical, Trypanosoma brucei
Conditions: 50 mM HEPES pH 7.8, 50 μM EGTA, 1 mM MgCl2, 30°C, GST fusion

B1: TbrPPX1 (Trypanosoma brucei) (protein)
chain: MTAVVNEFLKRGVRALAARQDSVLVMGNEGGDMDTVIGSIFLAMYLEKRDVFGVGSYVPVLNFEKDDLPLRQDVVKLLSRHNVSTDSIYSVKQSGNGVDFLDLHQMKLPIVLYDHNKLSPEQVYLGERIVGVVDHHEDEQLYVDQTKCLRRICKTGSACTLVAELFNEAGLEVPCPELLLAPIVVDTVNFEPSQKRVTERDILASRLLVGRDDCGDYLTGMFKELMAWKNDIHCLTVPQHLRRDYKNFEFPFISAENKILRVGISSISCRSDELLSVHGVSSVSSNCIEFIKQRSIDMLLLTFAGERTPGSYCRQLGVVAKDEGLAALQAYCKKSPSGLDFTLLEDVTVNEWAFSIYELSDPSVSRKKLVPSLTSFLSVWNNL
**Q.** B1 was tested. Which Km did it give?
**A.** 27.2 ± 4.2 µM

**Q.** And the kcat?
**A.** 8.1 ± 1.5 s⁻¹
